Results as given in US20120134979A1, “METHODS AND COMPOSITIONS FOR THE TREATMENT OF SICKLE CELL DISEASE” (priority 2010, published 2012).

Experiments:
[1] = test system: SCD Tg mice; assay: Hematological parameters of SCD Tg mice treated with PEG-ADA or PSB1115 for 8 weeks; format: in vivo, mouse; details: 8 weeks treatment
Description: Mice. Berkley sickle cell disease transgenic mice (SCD Tg mice), expressing exclusively human sickle hemoglobin (HbS) were purchased from The Jackson Laboratory Inc (Paszty, C. Transgenic and gene knock-out mouse models of sickle cell anemia and the thalassemias. Curr Opin Hematol 4, 88-93, 1997). C57BL/6 mice used as controls were purchased from Harlan Laboratories. Adenosine receptor deficient mice were obtained from the following sources: A1R-deficient mice (Jurgen Schnermann, NIDDK, NIH); A2AR-deficient mice (Jiang-Fan Chen, Boston University School of Medicine); A2BR-deficient mice (Michael R. Blackburn, University of Texas-Houston Medical School); and A3R-deficient mice (Marlene Jacobson, Merck Research Laboratories). All receptor deficient mice were backcrossed at least 10 generations onto the C57Blk/6J background and were genotyped according to established protocols (Sun, D., et al. Mediation of tubuloglomerular feedback by adenosine: evidence from mice lacking adenosine receptors. Proc Natl Acad Sci USA 98, 9983-9988, 2001; Nemeth, Z. H., et al. Adenosine receptor activation ameliorates type 1 diabetes. FASEB J, 2007; Chen, J. F., et al. A2A adenosine receptor deficiency attenuates brain injury induced by transient focal ischemia in mice. J Neurosci 19, 9192-9200, 1999; Salvatore, C. A., et al. Disruption of the A3 adenosine receptor gene in mice and its effect on stimulated inflammatory cells. The Journal of Biological Chemistry 275, 4429-4434, 2000). Animals were maintained in accordance with institutional and NIH guidelines under research protocols that were reviewed and approved by the University of Texas Health Science Center at Houston Animal Welfare Committee.
(§1) Chronic PEG-ADA therapy. SCD transgenic mice, at eight weeks of age, were divided to two groups. One group was injected with 2.5 U PEG-ADA weekly for 8 weeks. This dosing protocol was designated SCD with PEG-ADA treatment regimen (SCD+PEG-ADA). Another group was injected with normal saline for 8 weeks; it was designated as SCD without PEG-ADA treatment regimen (SCD). Wild-type mice (C57Bl/6) used as control were injected with saline or PEG-ADA as with the SCD groups.
(§2) Chronic treatment with A2BR antagonist, PSB1115. SCD transgenic mice or wild type mice (eight weeks of age) were divided to two groups, one groups was injected with 200 μg of PSB1115 (an A2B receptor antagonist: obtained from Tocris Bioscience, St. Louis, Mo.) in PBS, daily for 8 weeks. One of groups was injected with saline.
Morphological study of erythrocytes and quantification of reticulocytes by flow cytometry. Blood smears were stained using the WG16-500 ml kit (Sigma-Aldrich) for sickled cells and observed using 100× oil immersion objective of Olympus BX60 microscope. […] The percentages of sickled cells among the counted cells were calculated. Reticulocyte was labeled by Retic-COUNT Reagent (Becton Dickinson) and quantified by flow cytometry (Perumbeti, et al., A novel human gamma-globin gene vector for genetic correction of sickle cell anemia in a humanized sickle mouse model: critical determinants for successful correction. Blood. 2009; 114(6):1174-1185).

[2] = test system: SCD Tg mice; assay: Organ weight, histology and heme content in SCD Tg mice after chronic treatment; format: in vivo, mouse
Method: as §1, §2
Mouse organ isolation and histological analysis. Mice were anesthetized and body weight was determined. Organs were isolated and weighed. Half of each organ was quickly frozen in liquid nitrogen and then stored at −80° C. for heme content measurements as described below. The remaining half of each organ was fixed with 4% paraformaldehyde in PBS overnight at 4° C. Fixed tissues were rinsed in PBS, dehydrated through graded ethanol washes, and embedded in paraffin. 5 μm sections were collected on slides and stained with haematoxylin and eosin (H&E). Semiquantification of histological changes was analyzed by Image-Plus, Pro software.
Heme content measurement in multiple mouse tissues. Different organs were quickly removed and frozen in liquid nitrogen as described above. Heme was extracted from organs by homogenization with 1% Triton x-100 in PBS with 1× proteinase inhibitors (Roche) and the supernatant was collected following centrifugation at 20,000 g for 10 minutes at 4° C. Heme content was quantified following the instructions of QuantiChrom Heme Assay Kit (BioAssay Systems, Hayword, Calif.).

B1: PEG-ADA: polyethylene glycol-modified adenosine deaminase, a drug used to lower adenosine concentrations in ADA-deficient humans (protein, UniProt P56658 2-363, looked up)
Adenosine deaminase: AQTPAFNKPKVELHVHLDGAIKPETILYYGRKRGIALPADTPEELQNIIGMDKPLSLPEFLAKFDYYMPAIAGCREAVKRIAYEFVEMKAKDGVVYVEVRYSPHLLANSKVEPIPWNQAEGDLTPDEVVSLVNQGLQEGERDFGVKVRSILCCMRHQPSWSSEVVELCKKYREQTVVAIDLAGDETIEGSSLFPGHVKAYAEAVKSGVHRTVHAGEVGSANVVKEAVDTLKTERLGHGYHTLEDATLYNRLRQENMHFEVCPWSSYLTGAWKPDTEHPVVRFKNDQVNYSLNTDDPLIFKSTLDTDYQMTKNEMGFTEEEFKRLNINAAKSSFLPEDEKKELLDLLYKAYGMPSPASAEQCL
modifications: PEGylated
Work on B1 yielded an HCT [1] of 30.15 ± 8.90 %, a Hb [1] of 7.71 ± 2.64 g/dL and an MCH [1] of 12.38 ± 2.85 pg. The MCHC [1] was 25.33 ± 1.21 g/dL, the MCV [1] was 48.58 ± 8.79 fL and the RDW [1] was 28.03 ± 1.14 %. It also gave a Reticulocyte [1] of 43 ± 4.52 %, a Sickle cell [1] of 10.35 ± 0.39 % and a WBC [1] of 15.00 ± 2.79 k/μl. For the same molecule, the RBC ([1]; mean ± SEM) was 6.15 ± 1.01 M/μl, the “congestion, vascular damage and necrosis in multiple tissues (histology)” value ([2]; 8 weeks treatment, lung, liver, spleen (PSB1115 also kidney)) was “improved” and the “heme content in lung, liver and spleen” value ([2]; PEG-ADA enzyme therapy) was “significantly decreases”. For the same molecule, the “microinfarction and cysts in renal cortex and congestion in renal medulla” value ([2]; PEG-ADA enzyme therapy) was “significantly improved” and the “ratio of spleen weight to body weight” value ([2]; chronic treatment, untreated 4.52±0.24, p<0.05, n=8) was 2.48±0.36.
